Measurements from US20240352105A1, “COMPOSITIONS AND METHODS FOR NEUTRALIZING ANTIGENS” (PACAGEN, INC, priority 2023, published 2024).
“And” between values parts separate entries of the source, which are not always exact repeats. Equal entries are not always repeated.

Legend:
[1] = system: biotinylated anti-His antibody; assay: Recombinant Can f1-His ELISA binding assay
Method: In order to obtain single variable domain on heavy chain, i.e., VHH, specific for dog allergen Can f1, a recombinant His-tagged Can f1 was prepared, which reached high purity, as shown via SDS-Page Western blotting in FIG. 4. To confirm this, an ELISA was performed measuring optical density when the recombinant Can f1-His is incubated with a biotinylated anti-His antibody. As summarized in Table 4, the recombinant Can f1-His was effectively bound by the antibody.

[2] = molecular target: T1, recombinant His-tagged Can f1 (dog (Canis familiaris), UniProt O18873 19-174); assay: ELISA, antigen coated
T1 construct: also called Can f1-His; recombinant Can f1; not shown: His tag
Method: (§1) 2 microgram per milliliter (μg/mL) target antigen is coated in a 96-well plate and ELISA assay is performed after incubation with candidate VHHs. The binding EC50 of each clone is calculated using Prism GraphPad. The positive control antibody is involved as an internal control.
(§2) Isolated VHH clones were further validated by performing an ELISA assay as described in Example 1. Metrics of thermostability including melting temperature (Tₘ), onset temperature (Tₒₙₛₑₜ), and temperature of aggregation (Tagg), were also tested with increasing temperature in the range of 20° C.-95° C. at the speed of 1° C./min. The individual binding curves are shown for each candidate in FIGS. 5B-5H.

Fel D1 = molecular target: T2, Fel D1 (Felis catus, UniProt P30438); assay: ELISA binding assay of anti-Fel d1 VHH clones on Fel D1 epitopes; parameters: species or system cat; details: Epitope Recognized ENARILKNCVDAKM (SEQ ID NO: 61)
T2 construct: made in house; host or cells: chemically synthesized peptides
Method: as §1
Four distinct epitopes of Fel D1 were selected to be used for further identification. Peptides were synthesized for the four epitopes for VHH identification.
Isolated VHH clones were further validated by performing an ELISA assay as described in Example 1. Binding results are shown in FIG. 15B-15D for the epitope of SEQ ID NO: 61. Binding results are shown in FIG. 16 for the epitope of SEQ ID NO: 59. Binding results are shown in FIG. 17A-17E for the epitope of SEQ ID NO: 60. Binding results are shown in FIG. 18 for the epitope of SEQ ID NO: 58.

[3] = Thermostability (Tm, Tonset, Tagg) by Nanotemper DSF; assay type: physicochemical; parameters: key to Tm2 / Tagg / Tm1 / Tm / Tm3 / Tonset / Tonset ø (mean) / Tagg ø (mean): temperatures in °C; details: for Tm1: first melting point; for Tm2: second melting point
Method: as §2, with “(Tm),” for “(Tₘ),”, “(Tonset),” for “(Tₒₙₛₑₜ),”, “C./min. These measurements were performed using a Nanotemper DSF. When applicable, Tm1 refers to the first melting point observed, Tm2 refers to the second melting point observed, etc., Sequence information for the VHH clones and the binding assay results are summarized in Table 3.” for “C./min.”, “3B-3I.” for “5B-5H.”
Isolated VHH clones were further validated by performing an ELISA assay as described in Example 1. Metrics of thermostability including melting temperature (Tm), onset temperature (Tonset), and temperature of aggregation (Tagg), were also tested with increasing temperature in the range of 20° C.-95° C. at the speed of 1° C./min. The individual binding curves are shown for each candidate in FIGS. 5B-5H.
Isolated VHH clones were further validated by performing an ELISA assay as described in Example 1. Metrics of thermostability including melting temperature (Tm), onset temperature (Tonset), and temperature of aggregation (Tagg), were also tested with increasing temperature in the range of 20° C.-95° C. at the speed of 1° C./min. The individual binding curves are shown for each candidate in FIGS. 7B-7P.
The detailed thermostability graphs used to determine the Tm, Tonset, and Tagg are illustrated in FIGS. 19A-19I and raw data is summarized in Table 23. Any subsequent melting points observed (Tm1, Tm2, Tm3, etc.) are separated by commas.

[4] = system: biotinylated anti-His antibody; assay: Recombinant Can f2-His ELISA binding assay
Method: In order to obtain single variable domain on heavy chain, i.e., VHH, specific for dog allergen Can f2, a recombinant His-tagged Can f2 was prepared, which reached high purity, as shown via SDS-Page Western blotting in FIG. 6. To confirm this, an ELISA was performed measuring optical density when the recombinant Can f2-His is incubated with a biotinylated anti-His antibody. As summarized in Table 7, the recombinant Can f2-His was effectively bound by the antibody.

[5] = system: known Der p2 antibody (clone 6OY4); assay: Recombinant Der p2-His ELISA binding assay
Method: In order to obtain single variable domain on heavy chain, i.e., VHH, specific for dust mite allergen Der p2, a recombinant His-tagged Der p2 was prepared, which reached high purity, as shown via SDS-Page Western blotting in FIG. 2. To confirm this, an ELISA was performed. Briefly, the Der p2-HIS was coated onto an ELISA plate and a known Der p2 antibody (clone 6OY4) was added. A secondary detection antibody capable of binding to the Der p2 antibody was then added. The secondary detection antibody was conjugated to a horseradish peroxidase, which can be utilized to produce a colorimetric reaction. Then, optical density was measured. As summarized in Table 1, the recombinant Der p2-His was effectively bound by the antibody.

[6] = Average of two replicates, anti-Fel d1 VHH
[7] = Average of two replicates, anti-Fel d1 VHH, in °C (unit assumed)
[8] = Replicate 1, in °C (unit assumed)
[9] = Replicate 2, in °C (unit assumed)
[10] = anti-Fel d1 VHH, in °C (unit assumed)
[11] = anti-Can f1 VHH, 20° C.-95° C. at 1° C./min
[12] = anti-Can f1 VHH, in °C (unit assumed)

T1 sequence (O18873 19-174 limits assumed): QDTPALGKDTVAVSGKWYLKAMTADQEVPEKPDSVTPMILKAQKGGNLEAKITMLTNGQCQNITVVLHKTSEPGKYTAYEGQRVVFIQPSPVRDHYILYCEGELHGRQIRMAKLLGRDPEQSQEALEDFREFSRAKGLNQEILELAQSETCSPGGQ

## Can f1-His: recombinant His-tagged dog allergen Can f1
[1]; Can f1-His Concentration 0.00064 μg/mL
  OD at 450 nm: 0.07 and 0.11
[1]; Can f1-His Concentration 0.0032 μg/mL
  OD at 450 nm: 0.09 and 0.11
[1]; Can f1-His Concentration 0.016 μg/mL
  OD at 450 nm: 0.09 and 0.12
[1]; Can f1-His Concentration 0.08 μg/mL
  OD at 450 nm: 0.15 and 0.16
[1]; Can f1-His Concentration 0.4 μg/mL
  OD at 450 nm: 0.21 and 0.24
[1]; Can f1-His Concentration 2 μg/mL
  OD at 450 nm: 0.95 and 1.03
[1]; Can f1-His Concentration 10 μg/mL
  OD at 450 nm: 2.84 and 2.92

B1: SDAB22112-1-C9 (VHH)
VHH: QLQLVESGGGLVQPGGSLRLSCVGSGFTFSLASMGWYRQAPGKEREWVASISSLDASTNYADSVKGRFTISRDNAKRMVYLQMNNLKSEDTAVYYCKAMNYWGKGTQVTVSS
notes: anti-Can f1 alpaca VHH
[2]
  EC50: 13.1 mg/L

B2: SDAB22112-1-B6-B05 (VHH)
VHH: QLQLVESGGGLVQPGGSLRLSCAASRSIFSSYVMAWYRRAPGKKRELVASIANVGSNTDYASFAKGRFTISRDDDKSRDNDKITVYLQMNSLNPEDTAVYYCNAWLGAGSDYWGQGTQVTVSS
notes: anti-Can f1 alpaca VHH
[2]
  EC50: 8.42 mg/L

B3: SDAB22110-1-1-B9-1: anti-Fel d1 VHH clone, SEQ ID NO: 50 (protein)
VHH: DVQLVESGGGWVQPGGSLRLSCAASGFTFTSYALSWVRQAPGKGLEWVSLADARGTSTTYADSVKGRFTISKDNPRNTLYLLMNSLKPEDTAVYYCTKGFDGNWYPDYDYWGQGTQVTVSS
Fel D1
  EC50: 14.440 mg/L
[3]; [6]
  Tagg ø (mean): 41.73
  Tonset ø (mean): 42.07
[3]; [7]
  Tm ø (mean), first melting point (Tm1): 54.03
  Tm ø (mean), second melting point (Tm2): 63.20
[3]; Replicate 1
  Tagg: 41.73
  Tonset: 42.11
[3]; [8]
  Tm, first melting point (Tm1): 53.95
  Tm, second melting point (Tm2): 63.26
[3]; Replicate 2
  Tagg: 41.73
  Tonset: 42.04
[3]; [9]
  Tm, first melting point (Tm1): 54.10
  Tm, second melting point (Tm2): 63.15
[3]; anti-Fel d1 VHH
  Tagg: 41.73
  aggregates: Possible
[3]; [10]
  Tm1: 54.03
  Tm2: 63.20

B4: Can f2-His: recombinant His-tagged dog allergen Can f2 (protein)
chain: QEGNHEEPQGGLEELSGRWHSVALASNKSDLIKPWGHFRVFIHSMSAKDGNLHGDILIPQDGQCEKVSLTAFKTATSNKFDLEYWGHNDLYLAEVDPKSYLILYMINQYNDDTSLVAHLMVRDLSRQQDFLPAFESVCEDIGLHKDQIVVLSDDDRCQGSRD
modifications: left off: small tags and cut ends
[4]; Can f2-His Concentration 0.00064 μg/mL
  OD at 450 nm: 0.10 and 0.11
[4]; Can f2-His Concentration 0.0032 μg/mL
  OD at 450 nm: 0.11
[4]; Can f2-His Concentration 0.016 μg/mL
  OD at 450 nm: 0.10 and 0.11
[4]; Can f2-His Concentration 0.08 μg/mL
  OD at 450 nm: 0.12 and 0.13
[4]; Can f2-His Concentration 0.4 μg/mL
  OD at 450 nm: 0.22 and 0.19
[4]; Can f2-His Concentration 2 μg/mL
  OD at 450 nm: 0.57 and 0.65
[4]; Can f2-His Concentration 10 μg/mL
  OD at 450 nm: 1.12 and 1.07

B5: SDAB22112-2-B06 (VHH)
VHH: QVQLVESGGGLVQPGGSLRLSCAASGFTFRLAAMGWYRQAPEKEREWVASITGPGTDTNYADSVKGRFTVSRDNAKNTVYLQMNSLKPEDTAVYYCRGMGYWGKGTLVTVSS
notes: anti-Can f1 alpaca VHH
[2]
  EC50: 0.144 mg/L
[3]; [11]
  Tagg: 48.00
[3]; [12]
  Tm1: 56.38
  Tm2: 63.74
[3]; anti-Can f1 VHH, third melting point, in °C (unit assumed)
  Tm3: 70.13

B6: Der p2-His: recombinant His-tagged dust mite allergen Der p2 (protein)
chain: DQVDVKDCANHEIKKVLVPGCHGSEPCIIHRGKPFQLEAVFEANQNTKTAKIEIKASIDGLEVDVPGIDPNACHYMKCPLVKGQQYDIKYTWNVPKIAPKSENVVVTVKVMGDDGVLACAIATHAKIRD
modifications: left off: small tags and cut ends
[5]; Der p2-His Concentration 0.00064 μg/mL
  OD at 450 nm: 0.07 and 0.09
[5]; Der p2-His Concentration 0.0032 μg/mL
  OD at 450 nm: 0.09 and 0.10
[5]; Der p2-His Concentration 0.016 μg/mL
  OD at 450 nm: 0.11 and 0.12
[5]; Der p2-His Concentration 0.08 μg/mL
  OD at 450 nm: 0.38 and 0.35
[5]; Der p2-His Concentration 0.4 μg/mL
  OD at 450 nm: 1.31 and 1.37
[5]; Der p2-His Concentration 2 μg/mL
  OD at 450 nm: 4.06 and 4.02
[5]; Der p2-His Concentration 10 μg/mL
  OD at 450 nm: 4.61 and 4.57

B7: SDAB22112-1-D12 (VHH)
VHH: AVQLVDSGGGLVQAGGSLRLACAASGRTFDTYAVGWFRQAPGKERDVVASITWTSGSTWYADFVKGRFTISKDNAKNTVYLQMNNLSPEDTAVYYCGARNQIYTRWDSWGQGTQVTVSS
notes: anti-Can f1 alpaca VHH
[2]
  EC50: 4.01 mg/L
[3]; [11]
  Tagg: 49.15
[3]; anti-Can f1 VHH, single melting point, in °C (unit assumed)
  Tm: 57.78
